Experimental data taken from article PMC6572788 (2019).
Values belong to the binder of their own block, whether it stands above or below them.

What was measured:
[1] = molecular target: T1, 2PT-NBD1 (human CFTR NBD1, residues 387–646, S492P/A534P/I539T) (human, UniProt P13569 387-646, S492P | A534P | I539T, biotin (in the ELISA; site not stated)); experiment: ELISA; printed as pEC50 7.9
[2] = molecular target: T1, 2PT-NBD1 (human CFTR NBD1, residues …); experiment: ELISA; printed as pEC50 8.7
[3] = molecular target: T1, 2PT-NBD1 (human CFTR NBD1, residues …); experiment: ELISA; printed as pEC50 5.8
[4] = molecular target: T1, 2PT-NBD1 (human CFTR NBD1, residues …); experiment: ELISA; printed as pEC50 8.4
[5] = molecular target: T1, 2PT-NBD1 (human CFTR NBD1, residues …); experiment: ELISA; printed as pEC50 7.6

T1 sequence (P13569 387-646 S492P/A534P/I539T): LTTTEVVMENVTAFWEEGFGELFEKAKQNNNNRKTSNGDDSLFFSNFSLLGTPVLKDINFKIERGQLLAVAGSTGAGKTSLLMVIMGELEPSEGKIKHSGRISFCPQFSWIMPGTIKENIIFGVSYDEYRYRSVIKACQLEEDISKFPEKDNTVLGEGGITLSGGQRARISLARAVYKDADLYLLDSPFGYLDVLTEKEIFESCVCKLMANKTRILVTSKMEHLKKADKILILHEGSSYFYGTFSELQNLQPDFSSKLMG

EC50 [1]: 12.6 nM
B1: nanobody T2a (VHH)
VHH: QVQLQESGGGLVQAGGSLRLSCAASGSIFRIDAMGWYRQAPGKQRELVAHSTSGGSTDYADSVKGRFTISRDNAKNTVYLQMNSLKPEDTAVYYCNADVRTRWYASNNYWGQGTQVTVSS

EC50 [1]: 12.6 nM
B2: nanobody T8 (VHH)
VHH: QVQLQESGGGLVQPGGSLRLSCAASGSTSSINAMGWYRQAPGKQREPVAISSSGGDTRYAEPVKGRFTISRDNAQNKVYLQMNSLKPEDTAVYYCWLNWGRTSVNSWGQGTQVTVSS

EC50 [2]: 2 nM
B3: nanobody T27 (VHH)
VHH: QVQLQESGGGLEQPGGSLRLSCATSGVIFGINAMGWYRQAPGKQRELVATFTSGGSTNYADFVEGRFTISRDNAKNTVYLQMNGLRPEDTAVYYCHATVVVSRYGLTYDYWGQGTQVTVSS

EC50 [3]: 1580 nM
B4: nanobody G3a (VHH)
VHH: QVQLQESGGGLVQAGGSLRLSCTASGRAFSWYVMGWFRQAPGKEREFVATVSGNGSRRDYADSVKGRFTISRDNAKNTVYLQMNSLKPEDTAVYYCAASSTYYYTDPEKYDYWGQGTQVTVSS

EC50 [4]: 3.98 nM
B5: nanobody T4 (VHH)
VHH: QVQLQESGGGLVQAGGSLRLSCAASGSTFAIIAMGWYRQAPGKQRELVAVISTGDTRYADSVKGRFTISRDNAKNTVYLQMDSLRPEDTAVYYCNAAVQVRDYRNYWGQGTQVTVSS

EC50 [5]: 25.1 nM
B6: nanobody D12 (VHH)
VHH: QVQLQESGGGLVQAGSSLRLACAATGSIRSINNMGWYRQAPGKQRGMVAIITRVGNTDYADSVKGRFTISRDNAKNTVYLQMNSLKPEDTATYYCHAEITEQSRPFYLTDDYWGQGTQVTVSS
